Our source for the Kd, koff and kon values is PMC9323411.

The experiment deals with CLDmut (CD4-linker-DC-SIGN fusion protein with a linker of 8 Gly4Ser repeats and the Cys-to-Ser back (human) (UniProt P01730)). The experiment can be described thus: BLI.

Consider “trimeric HIV-1 CN54 gp140 (domain or fragment)”, for which the Kd – broadly, the concentration at which binding is half-saturated – is 390 pM; the koff – broadly, the first-order rate constant of dissociation – turned out to be 1.62e-05 s⁻¹; the kon (commonly the rate constant with which the complex forms) is 41100 M⁻¹ s⁻¹.
